We go through six sequences from the supplement of paper PMC11316812.

Data set [1] deals with MCF7. Description: percentage of EdU-negative (G0-arrested) nuclei per well, 72 h; higher = more G0 arrest. The conditions noted are these: reference: sequence is the full UniProt precursor, the tested protein was the secreted form or ectodomain.
Data set [2] relates to hTERT-HMEC. The description is as above. As to conditions: reference: sequence is the full UniProt precursor, the tested protein was the secreted form or ectodomain.
Setting [3] is: protein concentration 0.0215 µM.
The mark [4] stands for this setting: protein concentration 0.03125 µM.
Setting [5] is: protein concentration 0.3125 µM.
The mark [6] stands for this setting: protein concentration 0.00925 µM.
The mark [7] stands for this setting: protein concentration 0.0925 µM.
Setting [8] is: protein concentration 0.0135 µM.
The mark [9] stands for this setting: protein concentration 0.0225 µM.

± gives the standard deviation of the averaged measurements.
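Further: secreted proteins added to cultured cells, EdU pulse at the end, nuclei found by Hoechst imaging, EdU status from nuclear versus surrounding ring intensity ratio, PBS as neutral control.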

As for “MRHLGAFLFLLGVLGALTEMCEIPEMDSHLVEKLGQHLLPWMDRLSLEHLNPSIYVGLRLSSLQAGTKEDLYLHSLKLGYQQCLLGSAFSEDDGDCQGKPSMGQLALYLLALRANCEFVRGHKGDRLVSQLKWFLEDEKRAIGHDHKGHPHTSYYQYGLGILALCLHQKRVHDSVVDKLLYAVEPFHQGHHSVDTAAMAGLAFTCLKRSNFNPGRRQRITMAIRTVREEILKAQTPEGHFGNVYSTPLALQFLMTSPMRGAELGTACLKARVALLASLQDGAFQNALMISQLLPVLNHKTYIDLIFPDCLAPRVMLEPAAETIPQTQEIISVTLQVLSLLPPYRQSISVLAGSTVEDVLKKAHELGGFTYETQASLSGPYLTSVMGKAAGEREFWQLLRDPNTPLLQGIADYRPKDGETIELRLVSW”, the “percentage of EdU-negative” value in data set [1] (protein concentration 0.012 µM) was determined as 27 ± 1.9%; in data set [1] (protein concentration 0.12 µM), 25.5 ± 1.3%; in data set [2] (protein concentration 0.012 µM) it was 5.24 ± 0.2%; in data set [2] (protein concentration 0.12 µM), 6.61 ± 0.18%.
For “MTPILTVLICLGLSLGPRTHVQAGHLPKPTLWAEPGSVITQGSPVTLRCQGGQETQEYRLYREKKTALWITRIPQELVKKGQFPIPSITWEHAGRYRCYYGSDTAGRSESSDPLELVVTGAYIKPTLSAQPSPVVNSGGNVILQCDSQVAFDGFSLCKEGEDEHPQCLNSQPHARGSSRAIFSVGPVSPSRRWWYRCYAYDSNSPYEWSLPSDLLELLVLGVSKKPSLSVQPGPIVAPEETLTLQCGSDAGYNRFVLYKDGERDFLQLAGAQPQAGLSQANFTLGPVSRSYGGQYRCYGAHNLSSEWSAPSDPLDILIAGQFYDRVSLSVQPGPTVASGENVTLLCQSQGWMQTFLLTKEGAADDPWRLRSTYQSQKYQAEFPMGPVTSAHAGTYRCYGSQSSKPYLLTHPSDPLELVVSGPSGGPSSPTTGPTSTSGPEDQPLTPTGSDPQSGLGRHLGVVIGILVAVILLLLLLLLLFLILRHRRQGKHWTSTQRKADFQHPAGAVGPEPTDRGLQWRSSPAADAQEENLYAAVKHTQPEDGVEMDTRSPHDEDPQAVTYAEVKHSRPRREMASPPSPLSGEFLDTKDRQAEEDRQMDTEAAASEAPQDVTYAQLHSLTLRREATEPPPSQEGPSPAVPSIYATLAIH [A0A0B4J1W1]”, the “percentage of EdU-negative” value in data set [1] (setting [3]) is 23.2 ± 2.5%; in data set [1] (protein concentration 0.215 µM), 25.3 ± 0.95%; in data set [2] (setting [3]) it was 4.85 ± 0.58%; in data set [2] (protein concentration 0.215 µM), 5.72 ± 0.22%.
As to “MALSFSLLMAVLVLSYKSICSLGCDLPQTHSLGNRRALILLAQMGRISPFSCLKDRHDFGFPQEEFDGNQFQKAQAISVLHEMIQQTFNLFSTKDSSATWEQSLLEKFSTELNQQLNDLEACVIQEVGVEETPLMNVDSILAVKKYFQRITLYLTEKKYSPCAWEVVRAEIMRSFSLSKIFQERLRRKE”, the “percentage of EdU-negative” value worked out at 46.7 ± 0.98% in data set [1] (setting [4]), 47.89 ± 0.27% in data set [1] (setting [5]), 15.2 ± 2.2% in data set [2] (setting [4]) and 17.64 ± 0.089% in data set [2] (setting [5]).
Regarding “MLPAPAAPRWPPLLLLLLLLLPLARGAPARPAAGGQASELVVPTRLPGSAGELALHLSAFGKGFVLRLAPDDSFLAPEFKIERLGGSGRATGGERGLRGCFFSGTVNGEPESLAAVSLCRGLSGSFLLDGEEFTIQPQGAGGSLAQPHRLQRWGPAGARPLPRGPEWEVETGEGQRQERGDHQEDSEEESQEEEAEGASEPPPPLGATSRTKRFVSEARFVETLLVADASMAAFYGADLQNHILTLMSVAARIYKHPSIKNSINLMVVKVLIVEDEKWGPEVSDNGGLTLRNFCNWQRRFNQPSDRHPEHYDTAILLTRQNFCGQEGLCDTLGVADIGTICDPNKSCSVIEDEGLQAAHTLAHELGHVLSMPHDDSKPCTRLFGPMGKHHVMAPLFVHLNQTLPWSPCSAMYLTELLDGGHGDCLLDAPAAALPLPTGLPGRMALYQLDQQCRQIFGPDFRHCPNTSAQDVCAQLWCHTDGAEPLCHTKNGSLPWADGTPCGPGHLCSEGSCLPEEEVERPKPVADGGWAPWGPWGECSRTCGGGVQFSHRECKDPEPQNGGRYCLGRRAKYQSCHTEECPPDGKSFREQQCEKYNAYNYTDMDGNLLQWVPKYAGVSPRDRCKLFCRARGRSEFKVFEAKVIDGTLCGPETLAICVRGQCVKAGCDHVVDSPRKLDKCGVCGGKGNSCRKVSGSLTPTNYGYNDIVTIPAGATNIDVKQRSHPGVQNDGNYLALKTADGQYLLNGNLAISAIEQDILVKGTILKYSGSIATLERLQSFRPLPEPLTVQLLTVPGEVFPPKVKYTFFVPNDVDFSMQSSKERATTNIIQPLLHAQWVLGDWSECSSTCGAGWQRRTVECRDPSGQASATCNKALKPEDAKPCESQLCPL [Q9UP79]”, the “percentage of EdU-negative” value was 25.7 ± 2% in data set [1] (setting [6]), 26.53 ± 0.069% in data set [1] (setting [7]), 5.77 ± 1.1% in data set [2] (setting [6]) and 6.06 ± 0.51% in data set [2] (setting [7]).
Regarding “MLRFYLFISLLCLSRSDAEETCPSFTRLSFHSAVVGTGLNVRLMLYTRKNLTCAQTINSSAFGNLNVTKKTTFIVHGFRPTGSPPVWMDDLVKGLLSVEDMNVVVVDWNRGATTLIYTHASSKTRKVAMVLKEFIDQMLAEGASLDDIYMIGVSLGAHISGFVGEMYDGWLGRITGLDPAGPLFNGKPHQDRLDPSDAQFVDVIHSDTDALGYKEPLGNIDFYPNGGLDQPGCPKTILGGFQYFKCDHQRSVYLYLSSLRESCTITAYPCDSYQDYRNGKCVSCGTSQKESCPLLGYYADNWKDHLRGKDPPMTKAFFDTAEESPFCMYHYFVDIITWNKNVRRGDITIKLRDKAGNTTESKINHEPTTFQKYHQVSLLARFNQDLDKVAAISLMFSTGSLIGPRYKLRILRMKLRSLAHPERPQLCRYDLVLMENVETVFQPILCPELQL [Q8WWY8]”, the “percentage of EdU-negative” value in data set [1] (setting [8]) worked out at 25.5 ± 2.4%; in data set [1] (protein concentration 0.135 µM), 29.4 ± 2.3%; in data set [2] (setting [8]), 5.39 ± 1.9%; in data set [2] (protein concentration 0.135 µM), 14.6 ± 3%.
On to “MGCLLFLLLWALLQAWGSAEVPQRLFPLRCLQISSFANSSWTRTDGLAWLGELQTHSWSNDSDTVRSLKPWSQGTFSDQQWETLQHIFRVYRSSFTRDVKEFAKMLRLSYPLELQVSAGCEVHPGNASNNFFHVAFQGKDILSFQGTSWEPTQEAPLWVNLAIQVLNQDKWTRETVQWLLNGTCPQFVSGLLESGKSELKKQVKPKAWLSRGPSPGPGRLLLVCHVSGFYPKPVWVKWMRGEQEQQGTQPGDILPNADETWYLRATLDVVAGEAAGLSCRVKHSSLEGQDIVLYWGGSYTSMGLIALAVLACLLFLLIVGFTSRFKRQTSYQGVL”, for which the “percentage of EdU-negative” value stood at 23.9 ± 2.6% in data set [1] (setting [9]), 27.61 ± 0.11% in data set [1] (protein concentration 0.225 µM), 4.97 ± 0.24% in data set [2] (setting [9]) and 5.04 ± 0.17% in data set [2] (protein concentration 0.225 µM).
